# Where a chain is given by its changes, count along the chain named.
# T1: human TNFR2 on the surface of CHO-TNFR2 cells (human, UniProt P20333 23-461)
# T1 construct: whole, on cells
# T1 sequence (looked up): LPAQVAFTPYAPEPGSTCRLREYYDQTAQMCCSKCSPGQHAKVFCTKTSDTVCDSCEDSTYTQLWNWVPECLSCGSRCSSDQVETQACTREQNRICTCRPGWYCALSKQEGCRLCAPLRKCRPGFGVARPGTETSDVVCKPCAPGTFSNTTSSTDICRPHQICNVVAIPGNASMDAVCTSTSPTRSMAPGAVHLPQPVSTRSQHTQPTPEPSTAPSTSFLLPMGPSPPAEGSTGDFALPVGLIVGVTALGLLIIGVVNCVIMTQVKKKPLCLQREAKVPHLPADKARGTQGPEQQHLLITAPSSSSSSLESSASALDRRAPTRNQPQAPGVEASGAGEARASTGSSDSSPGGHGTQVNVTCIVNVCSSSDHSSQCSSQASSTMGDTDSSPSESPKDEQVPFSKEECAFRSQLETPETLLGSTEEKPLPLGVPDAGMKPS
# B1: 219-WT (antibody, V domains shown)
# VH: EVQLQESGAELVRPGASVKLSCKASGYSFTNYWMNWVKQRPGQGLEWIGMIHPSDTETRLNQNFKDKATLTVDKSSSTSYMQLSSPTSEDSAVYYCARGEGLGAARSVSMDYWGQGTTVTVSS
# VL: DILMTQSPSSLSASLGDRVTISCRASQDISNYLNWYQQKPDGTVKVLIYYTAILHSGVPSRFSGSGSGTDYSLTISNLEQEDIATYFCQQGNTLPWTFGGGTKLEIK
# notes: Human-murine chimeric wild-type molecule
# B2: 219-Hu3 (antibody, V domains shown)
# VH: QVQLVQSGAEVKKPGSSVKVSCKASGYSFTNYWMNWVRQAPGQGLEWMGMIHPSDTETRLNQNFKDRVTITADKSTSTAYMELSSLRSEDTAVYYCARGEGLGAARSVSMDYWGQGTLVTVSS
# VL: B1 VL with L3Q, L15V, S22T, V46L, N77S, E79Q, Q80P, I83F, G100Q, L104V
# notes: also called VH5 + VL5
# B3: 219-Hu2 (antibody, V domains shown)
# VH: B2 VH with R67K, V68A
# VL: B1 VL with L3Q, L15V, S22T, V46L, N77S, E79Q, Q80P, I83F, G100Q, L104V
# notes: also called VH4 + VL5
# B4: 219-Hu4 (antibody, V domains shown)
# VH: B2 VH with R38K, M48I, R67K, V68A, I70L, A72V
# VL: B1 VL with L3Q, L15V, S22T, V46L, N77S, E79Q, Q80P, I83F, G100Q, L104V
# notes: also called VH6 + VL5
# B5: 219-Hu5 (antibody, V domains shown)
# VH: B2 VH with A72V
# VL: B1 VL with L3Q, L15V, S22T, V46L, N77S, E79Q, Q80P, I83F, G100Q, L104V
# notes: also called VH7 + VL5
# B6: 219-Hu1 (antibody, V domains shown)
# VH: B2 VH with S16A, G44R, A72R, K74T, T76A
# VL: B1 VL with L3Q, L15V, S22T, V46L, N77S, E79Q, Q80P, I83F, G100Q, L104V
# notes: also called VH3 + VL5
# B7: 001-WT (antibody, V domains shown)
# VH: EVQLQESGGGLVQPGGSLNLSCAASGFAFSTYDLSWVRQTPEKRLEWVAYINNGGISTYYSDTVKGRFTISRDNAKNTLYLQMSSLKSEDTAMYYCVRGPFYGSANYFDYWGQGTTVTVSS
# VL: EIVMTQSPASLSLSVGETVTITCRTSESIYSNLPWYQQKQGKSPQLLVYDATKLAEGVPSRFSGSESGTQYSLKINSLQSEDFGTYYCQHFWVTPWTFGGGTKLEIK
# notes: Human-murine chimeric wild-type molecule; also called human-murine chimeric antibody WT of #001
# B8: 224-WT (antibody, V domains shown)
# VH: EVQLQESGPEIVKPGASVKLSCTASGFNNKDIYMHWVKQRPEQGLEWIGRIDPATGNTKHDPKFQDKATLSSDTSSNTAYLQFSSLTSEDTAVYYCAHSPYGDFGAMDYWGQGTTVTVSS
# VL: DIQMTQSPAIMSASLGERVTMTCTASSSVSSNYLHWYQQKPGSSPKLWIYSTSNLPSGVPARFSGSGSGTSYSLTISSMEAEDAATYYCHQYHRSPWTFGGGTKLEIK
# notes: Human-murine chimeric wild-type molecule; also called human-murine chimeric antibody WT of #224
# Key:
# [1] = target: T1, human TNFR2 on the surface of CHO-TNFR2 …; test: flow cytometry on CHO-TNFR2 cells; EC50, reference itself
# Description: The transfected full-length plasmid of human TNFR2 was purchased from Sino Biological (Cat #HG10417-UT, NCBI Ref Seq: NM_001066.2). The experiment was conducted at a cell density within 80%. The cell medium was discarded; the cells were rinsed with PBS, and digested with 1 ml trypsin for 2 minutes; the digestion was stopped with a Ham's F12 complete medium containing 10% FBS, and then a cell suspension was made. The cell suspension was counted, and then an appropriate amount of cell suspension was centrifuged at 350×g; the supernatant was discarded; a corresponding volume of blocking solution (10% FBS+PBS) at a density of 1×10⁷ cells/ml was added to resuspend the cells, and the mixture was incubated at 4° C. for 30 minutes. After the incubation, the mixture was centrifuged at 350×g to remove the supernatant, and the cells were resuspended in a staining buffer (2% FBS+PBS) to a density of 2×10⁶ cells/ml, and spread onto a 96-well plate, with 50 μl of cell suspension added to each well for later use. The antibody was diluted with PBS for 10-fold gradient dilution from the highest concentration of 20 μg/m (twice the concentration); the diluted antibody was added to the well containing 50 μl of cell suspension, and placed on a microplate shaker for shaking at 500 rpm for 1 minute, so that the antibody was fully mixed with the cells; the mixture was incubated at 4° C. for 1 h. After the incubation, the cells were washed twice with the staining buffer, with 100 μl per well, and centrifuged at 350-g for 5 minutes, and the supernatant was discarded. […] After the staining, similarly, the cells were washed twice with the staining buffer; finally, the cells were resuspended in 200 μl of staining buffer; signals were detected by a flow cytometer (Thermo Attune NxT). […] The binding curve of an antibody was drawn with antibody concentration as the abscissa and corresponding mean fluorescence intensity (MFI) fold as the ordinate, and fitted with four parameters (GraphPad Prism9) to calculate the EC50 value.
# [2] = target: T1, human TNFR2 on the surface of CHO-TNFR2 …; test: competition flow cytometry on CHO-TNFR2 cells, competitor TNFα-biotin; AUC against 219-WT
# Description: (§1) CHO stable cells highly expressing human TNFR2 were used for the experiment (the same as CHO-TNFR2 in Example 4). The CHO-TNFR2 cells were digested, washed twice with DPBS, then stained with Live/Dead (L/D) (20 minutes at room temperature), and plated at a density of 1×10⁵ cells/50 μl/well. A test anti-TNFR2 antibody was diluted to 6 μg/ml with a staining buffer as the starting concentration: the antibody was subjected to 3.33-fold gradient dilution, with a total of 7 concentration points. The diluted antibody was added to the plated cells at 50 μl/well, and the mixture was mixed well by gentle pipetting, and incubated at 4° C. for 30 minutes. Then the diluted 100 ng/ml of human TNFα-biotin was added at 100 μl/well, and the mixture was mixed well by gentle pipetting, and then incubated at 4° C. for 30 minutes. The mixture was washed twice with a staining buffer, and then 0.12 μg/ml PE-streptavidin (BioLegend, Cat #405204) was added at 100 μl/well; the resulting mixture was incubated at 4° C. for 30 minutes. The mixture was washed twice with a staining buffer, and then 150 μl of staining buffer was added to resuspend the cells; signals were detected by a flow cytometer (Thermo Attune NxT). The inhibitory curve of an antibody was drawn with antibody concentration as the abscissa and corresponding MFI value as the ordinate, and fitted with four parameters (GraphPad Prism9) to calculate the IC50 value. The smaller the IC50 value, the stronger the ability of an antibody to inhibit the binding of human TNFα to human TNFR2. The blocking effect of a humanized antibody was normalized to its corresponding human-murine chimeric WT antibody. The higher the percentage value, the better the inhibitory effect of the humanized antibody.
# [3] = target: T1, human TNFR2 on the surface of CHO-TNFR2 …; test: competition flow cytometry on CHO-TNFR2 cells, competitor TNFα-biotin; IC50 against 219-WT
# Description: as §1
Binder,% Relative activity (WT antibody/test antibody) [1] [%],% Relative activity (WT antibody/test antibody) [2] [%],% Relative activity (WT antibody/test antibody) [3] [%]
B1,100,–,–
B2,–,98.5,120
B3,–,102,127
B4,–,108,124
B5,–,109,138
B6,–,102,106
B7,100,–,–
B8,100,–,–

# — patent publication US20240109974A1 (SHANDONG SIMCERE BIOPHARMACEUTICAL, published 2024)
